Source: patent publication US20240002497A1 (Merck Sharp & Dohme, published 2024)
Positions count from the first letter of the chain named. Numbers in names are those of the source. Like-named read-outs stand apart in the source and are kept apart here. Values belong to the binder of their own block, whether it stands above or below them.

Legend:
huNav1.7α + β1 [1] = target: huNav1.7α + β1 (human); experiment: cell-based or functional assay
huNav1.7α + β1 [2] = target: huNav1.7α + β1 (human); experiment: cell-based or functional assay; remark: listed apart in the source
huNav1.7α+β1 [3] = target: T1, huNav1.7α+β1 (human, UniProt Q15858 1-1988; Q07699 19-218); experiment: binding FACS, HEKa/β1 cells
T1 construct: also called huNav1.7-beta1; HEKa/β1
Procedure, shortened: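 Cells in FACS buffer (PBS, 10% FBS, NaN₃) were incubated with purified FLAG3-tagged ISVD for 30 minutes at 4° C. Bound ISVD was detected by flow cytometry with murine anti-Flag, and dead cells were excluded with 1 μg/mL propidium iodide.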

huNav1.7α+β1 [4] = target: T1, huNav1.7α+β1; experiment: cell-based or functional assay
huNav1.7α + β1 [5] = target: huNav1.7α + β1 (human); experiment: cell-based or functional assay; remark: listed apart in the source
huNav1.7α [6] = target: T2, huNav1.7α (human, UniProt Q15858 1-1988); experiment: binding FACS, HEK
T2 construct: HEK cells expressing the α subunit without β subunits; also called huNav1.7 (alpha-subunit); Human Nav1.7α

huNav1.7α + β1 [7] = target: T3, huNav1.7α + β1 (human); experiment: binding FACS, HEK
T3 construct: HEK293 cells; also called huNav1.7-beta1; huNav1.7-β1

huNav1.7α + β1-β2-β3 [8] = target: T4, huNav1.7α + β1-β2-β3 (human, UniProt Q15858 1-1988; A5A6L6 19-218; O60939 30-215; Q2KI11 23-215); experiment: competition FACS vs EC25 of F103275B05(N93R), HEK FlpIn
T4 construct: also called huNav1.7-beta1-beta2-beta3; huNav1.7-β1-β2-β3

huNav1.7α [9] = target: T2, huNav1.7α; experiment: cell-based or functional assay
huNav1.7α + β1-β2-β3 [10] = target: T4, huNav1.7α + β1-β2-β3; experiment: cell-based or functional assay
huNav1.7α [11] = target: T2, huNav1.7α; experiment: competition FACS vs EC25 of F103275B05(N93R), HEK
huNav1.7α + β1 [12] = target: T3, huNav1.7α + β1; experiment: competition FACS vs EC25 of F103275B05(N93R), HEK
rhNav1.7α + β1-β2-β3 = target: T5, rhNav1.7α + β1-β2-β3 (rhesus monkey); experiment: competition FACS vs EC40 of F103275B05(N93R), CHO FlpIn
T5 construct: also called rhNav1.7-beta1-beta2-beta3; rhNav1.7-β1-β2-β3

huNav1.7α + β1-β2-β3 [13] = target: T4, huNav1.7α + β1-β2-β3; experiment: competition FACS vs EC25 of F103275B05(N93R), CHO FlpIn

B1: F010301558 (VHH)
VHH: EVQLVESGGGLVQAGGSLRLSCAASGRILRIGYMRWHRQGAGKQREFVARITGDSATGYADSVKGRFTISRDNAKNTVYLQMNNLNPEDTAVYYCEALVTASVRGGSIHSGTYWGRGTLVTVSS
Qpatch IC50 (huNav1.7α + β1 [1]): 8 nM

B2: F010301559 (VHH)
VHH: B1 VHH with G53D, D54G
Qpatch IC50 (huNav1.7α + β1 [1]): 12 nM

B6: F010301162 (VHH)
VHH: EVQLVESGGGLVQPGGSLRLSCAASGMLFNRNTQGWYRQAPGKQRELVAFIFSGGWTNYNDSVKGRFTISRDNAKRTMYLQMNSLKPEDSAIYYCSLSRYQGQGTLVTVSS
Qpatch IC50 (huNav1.7α + β1 [2]): 32 nM

B7: F010301191 (VHH)
VHH: B6 VHH with S96A, R99V
Qpatch IC50 (huNav1.7α + β1 [2]): 63 nM

B8: F010301090 (VHH)
VHH: B6 VHH with R31A, N58T
Qpatch IC50 (huNav1.7α + β1 [2]): 22 nM

B12: F010301129 (VHH)
VHH: B6 VHH with R31A, S96A
notes: vs F0103265A11: Y56W, V60N, S93A, L103Q
Bmax relative to '535 (huNav1.7α+β1 [3]): 103%
EC50 (huNav1.7α+β1 [3]): 3.6 nM
IC50 [M], electrophysiology (huNav1.7α+β1 [4]): 1.3e-07 M

B15: 65ASP (Fc fusion)
chain: EVQLVESGGGLVQPGGSLRLSCAASGSIFNINSMAWYRRAPGKQRELVASSTNGGSTNYADSVKGRFTISRDNAKRVYLQMNSLTPEDTAVYYCNALLQPSIYDISRTYWGQGTLVTVSS
notes: also called F0103275B05-5GS-Fc; not shown: 5GS linker; Fc moiety
Qpatch IC50 [M], HEK cells (huNav1.7α + β1 [5]): 1.2e-07 M
EC50 (huNav1.7α [6]): 21 nM
EC50 (huNav1.7α + β1 [7]): 45 nM

B16: F010300468 (VHH)
VHH: B15 chain with N95R
notes: also called F0103275B05(N93R) + FLAG3-HIS6; F103275B05(N93R) + FLAG3-HIS6
IC50 (huNav1.7α + β1-β2-β3 [8]): 97 nM
Qpatch IC50 (huNav1.7α [9]): 57 nM
Qpatch IC50 (huNav1.7α + β1-β2-β3 [10]): 99 nM
IC50 (huNav1.7α [11]): 49 nM
IC50 (huNav1.7α + β1 [12]): 67 nM
IC50 (rhNav1.7α + β1-β2-β3): 77 nM
IC50 (huNav1.7α + β1-β2-β3 [13]): 130 nM

Other lines, results leading:

Qpatch IC50 (huNav1.7α + β1 [1]): 18 nM
B3: F010301566 (VHH)
VHH: B1 VHH with A23D, G53D, D54G

Qpatch IC50 (huNav1.7α + β1 [1]): 5 nM
B4: F010301563 (VHH)
VHH: B1 VHH with G53D

Qpatch IC50 (huNav1.7α + β1 [1]): 32 nM
B5: F010302391 (VHH)
VHH: B1 VHH with L11V, A14P, H37Y, G40A, A41P, D54G, N84S, N86R, V92L, R116Q

Qpatch IC50 (huNav1.7α + β1 [2]): 14 nM
B9: F010301080 (VHH)
VHH: B6 VHH with R31A, S53W, W56Y, T57V, N58T, Q101L

Qpatch IC50 (huNav1.7α + β1 [2]): 126 nM
B10: F010301129 (VHH)
VHH: B6 VHH with R31A, S96A

Bmax relative to '535 (huNav1.7α+β1 [3]): 102%
EC50 (huNav1.7α+β1 [3]): 4.8 nM
IC50 [M], electrophysiology (huNav1.7α+β1 [4]): 2.2e-08 M
B11: F010301090 (VHH)
VHH: B6 VHH with R31A, N58T
notes: vs F0103265A11: Y56W, N58T, V60N, L103Q

Bmax relative to '535 (huNav1.7α+β1 [3]): 119%
EC50 (huNav1.7α+β1 [3]): 4.1 nM
IC50 [M], electrophysiology (huNav1.7α+β1 [4]): 6.3e-08 M
B13: F010301191 (VHH)
VHH: B6 VHH with S96A, R99V
notes: vs F0103265A11: A31R, Y56W, V60N, S93A, R101V, L103Q

Bmax relative to '535 (huNav1.7α+β1 [3]): 115%
EC50 (huNav1.7α+β1 [3]): 3.8 nM
IC50 [M], electrophysiology (huNav1.7α+β1 [4]): 3.2e-08 M
B14: F010301162 (VHH)
VHH: B6 VHH
notes: vs F0103265A11: A31R, Y56W, V60N, L103Q
